The record followed here is publication PMC4837325, “Arabidopsis HIGH PLOIDY2 Sumoylates and Stabilizes Flowering Locus C through Its E3 Ligase Activity” (Frontiers in Plant Science, 2016).

For the experiment, the target named is T1, GST-HPY2 (Arabidopsis thaliana, UniProt Q8GYH7 1-249).
T1 construct: HIGH PLOIDY2 (HPY2), E3 SUMO ligase of Arabidopsis, full-length cDNA cloned into pGEX4T-1; also called HIGH PLOIDY2; AtHPY2; source: E. coli BL21, purified (glutathione resin)
T1 sequence (looked up): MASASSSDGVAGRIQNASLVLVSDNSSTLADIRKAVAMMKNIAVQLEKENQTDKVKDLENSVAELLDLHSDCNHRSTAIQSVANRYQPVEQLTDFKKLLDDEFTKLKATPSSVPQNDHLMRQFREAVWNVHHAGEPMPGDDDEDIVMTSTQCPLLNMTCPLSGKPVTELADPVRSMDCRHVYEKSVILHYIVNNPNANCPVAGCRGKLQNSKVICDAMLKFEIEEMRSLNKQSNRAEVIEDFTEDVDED
In words: pull-down; in vitro GST pull-down, 2 ug each of GST-HPY2 bait and His6-FLC prey; His6-FLC detected by Western blot with anti-His antibody. The following applies: both partners purified.

B1: His6-FLC (natural protein, Arabidopsis thaliana, UniProt Q9S7Q7 1-196, looked up)
chain: MGRKKLEIKRIENKSSRQVTFSKRRNGLIEKARQLSVLCDASVALLVVSASGKLYSFSSGDNLVKILDRYGKQHADDLKALDHQSKALNYGSHYELLELVDSKLVGSNVKNVSIDALVQLEEHLETALSVTRAKKTELMLKLVENLKEKEKMLKEENQVLASQMENNHHVGAEAEMEMSPAGQISDNLPVTLPLLN
notes: Flowering Locus C (FLC), MADS-box transcription factor of Arabidopsis, full-length cDNA cloned into pET28a; also called Flowering Locus C; source: E. coli BL21, purified (Ni2+-NTA resin)
For B1, the binding result is “binds”.
